Test results from EP2261242A1, “Aspartate-N-acetyltransferase enzyme, diagnostic method and therapeutic method” (UNIVERSITE CATHOLIQUE DE LOUVAIN, priority 2009, dated 2010).
Like-named read-outs stand apart in the source and are kept apart here.

Legend:
mouse NAT8L = biological target: T1, mouse NAT8L (Mus musculus, UniProt Q3UGX3); assay: Radiochemical Asp-NAT activity assay on washed membrane pellets of HEK cells transfected with untagged mouse NAT8L; assay type: biochemical
T1 construct: expressed in transfected cells; host or cells: HEK 293T cells (pCMV5 vector); washed 16 000 x g membrane pellets of frozen-thawed extracts
T1 sequence (Q3UGX3 1-299): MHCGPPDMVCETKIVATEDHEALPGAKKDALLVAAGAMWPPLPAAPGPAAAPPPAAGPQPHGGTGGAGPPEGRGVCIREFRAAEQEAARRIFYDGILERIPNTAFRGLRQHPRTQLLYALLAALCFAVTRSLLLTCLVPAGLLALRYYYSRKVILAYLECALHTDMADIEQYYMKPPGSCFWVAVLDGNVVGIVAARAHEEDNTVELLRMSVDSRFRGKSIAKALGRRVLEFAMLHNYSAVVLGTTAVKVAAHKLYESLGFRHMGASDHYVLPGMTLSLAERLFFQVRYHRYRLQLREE
Protocol: After 20-40 min at 30°C, the reaction was arrested by a 5-min incubation at 80°C and 1 ml of 5 mM Hepes, pH 7.1 was added. The sample was centrifuged and the supernatant was applied on a 1-ml Dowex AG1X8 column (Cl^- form, 100-200 mesh, from Acros Organics) prepared in a Pasteur capillary pipette. […] Radioactivity was counted in the presence of Ultima Gold™ (Perkin Elmer) in a liquid scintillation counter. The kinetic studies shown in Figure 3 were performed using washed pellets, obtained by centrifuging extracts for 20 min at 16 000 x g, resuspending them in the initial volume of extraction buffer, recentrifugation and resuspension in the original volume of extraction buffer.
The Asp-NAT activity was further characterized in extracts of cells expressing wild-type mouse NAT8L. […] The kinetic studies were therefore performed on washed pellets, to eliminate soluble, potentially interfering enzymes. […] The KM values amounted to ≈ 9 and 13 µM in the presence of 0.5 and 1 mM CHAPS, respectively.

[1] = substrate: CC(=O)SCCNC(=O)CCNC(=O)[C@H](O)C(C)(C)COP(=O)(O)OP(=O)(O)OC[C@H]1O[C@@H](n2cnc3c(N)ncnc32)[C@H](O)[C@@H]1OP(=O)(O)O; assay: purified protein, by the assay type; details: other: 20 µM aspartate, pH 7.1
[2] = substrate: NC(CCC(=O)O)C(=O)O; assay: purified protein, by the assay type; details: other: glutamate as substrate (not shown); pH 7.1
[3] = substrate: N[C@@H](CC(=O)O)C(=O)O; assay: purified protein, by the assay type; details: other: substrate saturation curve; same in absence and presence of 0.5 mM CHAPS; pH 7.1

CC(=O)N[C@@H](CC(=O)O)C(=O)O [NAA, N-acetylaspartate]
Ki (mouse NAT8L; inhibition of incorporation of [^14C]-aspartate into NAA, competitive with respect to aspartate, 200 µM acetyl-CoA, 0.5 mM CHAPS, variable aspartate): 0.56 mM

N[C@@H](CCC(=O)O)C(=O)O [glutamate]
Ki (mouse NAT8L): ~6 mM

C[C@H](CCC(=O)NCCC[N+](C)(C)CCCS(=O)(=O)[O-])[C@H]1CC[C@H]2[C@@H]3[C@H](O)C[C@@H]4C[C@H](O)CC[C@]4(C)[C@H]3C[C@H](O)[C@]12C [CHAPS]
increase of Vmax (mouse NAT8L; 0.5 mM CHAPS, saturation curve for aspartate): ≈ 30%

B1: mouse NAT8L (Mus musculus) (protein)
chain: MHCGPPDMVCETKIVATEDHEALPGAKKDALLVAAGAMWPPLPAAPGPAAAPPPAAGPQPHGGTGGAGPPEGRGVCIREFRAAEQEAARRIFYDGILERIPNTAFRGLRQHPRTQLLYALLAALCFAVTRSLLLTCLVPAGLLALRYYYSRKVILAYLECALHTDMADIEQYYMKPPGSCFWVAVLDGNVVGIVAARAHEEDNTVELLRMSVDSRFRGKSIAKALGRRVLEFAMLHNYSAVVLGTTAVKVAAHKLYESLGFRHMGASDHYVLPGMTLSLAERLFFQVRYHRYRLQLREE
Km ([1]; in the presence of 0.5 mM CHAPS): 9 µM | Km ([1]; in the presence of 1 mM CHAPS): 13 µM | Km [2]: 5000 µM | Km [3]: 90 µM
